Measured values: patent publication US20140010832A1

Assays:
Test in all cases: ELISA; cytokine coated, ECM protein 0.02 to 320 nM, KD by non-linear fit
Fibrinogen = target: Fibrinogen
Tenascin C = target: Tenascin C
Osteopontin = target: Osteopontin
Fibronectin = target: Fibronectin
Vitronectin = target: Vitronectin
Chain of Vitronectin (P04004 20-478): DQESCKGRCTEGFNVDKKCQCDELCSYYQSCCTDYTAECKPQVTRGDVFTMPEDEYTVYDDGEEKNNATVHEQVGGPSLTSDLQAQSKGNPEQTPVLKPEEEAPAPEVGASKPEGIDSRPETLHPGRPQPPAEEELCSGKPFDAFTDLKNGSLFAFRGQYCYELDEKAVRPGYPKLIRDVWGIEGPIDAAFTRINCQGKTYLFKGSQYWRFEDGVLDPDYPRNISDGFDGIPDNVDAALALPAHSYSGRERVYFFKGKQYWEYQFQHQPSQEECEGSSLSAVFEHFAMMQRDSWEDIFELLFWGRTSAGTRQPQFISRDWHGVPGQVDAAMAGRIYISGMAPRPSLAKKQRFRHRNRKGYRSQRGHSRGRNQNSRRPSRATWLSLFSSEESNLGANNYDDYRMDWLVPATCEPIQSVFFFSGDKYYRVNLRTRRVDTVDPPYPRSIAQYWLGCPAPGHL

Chain of Fibronectin (P02751 32-2477): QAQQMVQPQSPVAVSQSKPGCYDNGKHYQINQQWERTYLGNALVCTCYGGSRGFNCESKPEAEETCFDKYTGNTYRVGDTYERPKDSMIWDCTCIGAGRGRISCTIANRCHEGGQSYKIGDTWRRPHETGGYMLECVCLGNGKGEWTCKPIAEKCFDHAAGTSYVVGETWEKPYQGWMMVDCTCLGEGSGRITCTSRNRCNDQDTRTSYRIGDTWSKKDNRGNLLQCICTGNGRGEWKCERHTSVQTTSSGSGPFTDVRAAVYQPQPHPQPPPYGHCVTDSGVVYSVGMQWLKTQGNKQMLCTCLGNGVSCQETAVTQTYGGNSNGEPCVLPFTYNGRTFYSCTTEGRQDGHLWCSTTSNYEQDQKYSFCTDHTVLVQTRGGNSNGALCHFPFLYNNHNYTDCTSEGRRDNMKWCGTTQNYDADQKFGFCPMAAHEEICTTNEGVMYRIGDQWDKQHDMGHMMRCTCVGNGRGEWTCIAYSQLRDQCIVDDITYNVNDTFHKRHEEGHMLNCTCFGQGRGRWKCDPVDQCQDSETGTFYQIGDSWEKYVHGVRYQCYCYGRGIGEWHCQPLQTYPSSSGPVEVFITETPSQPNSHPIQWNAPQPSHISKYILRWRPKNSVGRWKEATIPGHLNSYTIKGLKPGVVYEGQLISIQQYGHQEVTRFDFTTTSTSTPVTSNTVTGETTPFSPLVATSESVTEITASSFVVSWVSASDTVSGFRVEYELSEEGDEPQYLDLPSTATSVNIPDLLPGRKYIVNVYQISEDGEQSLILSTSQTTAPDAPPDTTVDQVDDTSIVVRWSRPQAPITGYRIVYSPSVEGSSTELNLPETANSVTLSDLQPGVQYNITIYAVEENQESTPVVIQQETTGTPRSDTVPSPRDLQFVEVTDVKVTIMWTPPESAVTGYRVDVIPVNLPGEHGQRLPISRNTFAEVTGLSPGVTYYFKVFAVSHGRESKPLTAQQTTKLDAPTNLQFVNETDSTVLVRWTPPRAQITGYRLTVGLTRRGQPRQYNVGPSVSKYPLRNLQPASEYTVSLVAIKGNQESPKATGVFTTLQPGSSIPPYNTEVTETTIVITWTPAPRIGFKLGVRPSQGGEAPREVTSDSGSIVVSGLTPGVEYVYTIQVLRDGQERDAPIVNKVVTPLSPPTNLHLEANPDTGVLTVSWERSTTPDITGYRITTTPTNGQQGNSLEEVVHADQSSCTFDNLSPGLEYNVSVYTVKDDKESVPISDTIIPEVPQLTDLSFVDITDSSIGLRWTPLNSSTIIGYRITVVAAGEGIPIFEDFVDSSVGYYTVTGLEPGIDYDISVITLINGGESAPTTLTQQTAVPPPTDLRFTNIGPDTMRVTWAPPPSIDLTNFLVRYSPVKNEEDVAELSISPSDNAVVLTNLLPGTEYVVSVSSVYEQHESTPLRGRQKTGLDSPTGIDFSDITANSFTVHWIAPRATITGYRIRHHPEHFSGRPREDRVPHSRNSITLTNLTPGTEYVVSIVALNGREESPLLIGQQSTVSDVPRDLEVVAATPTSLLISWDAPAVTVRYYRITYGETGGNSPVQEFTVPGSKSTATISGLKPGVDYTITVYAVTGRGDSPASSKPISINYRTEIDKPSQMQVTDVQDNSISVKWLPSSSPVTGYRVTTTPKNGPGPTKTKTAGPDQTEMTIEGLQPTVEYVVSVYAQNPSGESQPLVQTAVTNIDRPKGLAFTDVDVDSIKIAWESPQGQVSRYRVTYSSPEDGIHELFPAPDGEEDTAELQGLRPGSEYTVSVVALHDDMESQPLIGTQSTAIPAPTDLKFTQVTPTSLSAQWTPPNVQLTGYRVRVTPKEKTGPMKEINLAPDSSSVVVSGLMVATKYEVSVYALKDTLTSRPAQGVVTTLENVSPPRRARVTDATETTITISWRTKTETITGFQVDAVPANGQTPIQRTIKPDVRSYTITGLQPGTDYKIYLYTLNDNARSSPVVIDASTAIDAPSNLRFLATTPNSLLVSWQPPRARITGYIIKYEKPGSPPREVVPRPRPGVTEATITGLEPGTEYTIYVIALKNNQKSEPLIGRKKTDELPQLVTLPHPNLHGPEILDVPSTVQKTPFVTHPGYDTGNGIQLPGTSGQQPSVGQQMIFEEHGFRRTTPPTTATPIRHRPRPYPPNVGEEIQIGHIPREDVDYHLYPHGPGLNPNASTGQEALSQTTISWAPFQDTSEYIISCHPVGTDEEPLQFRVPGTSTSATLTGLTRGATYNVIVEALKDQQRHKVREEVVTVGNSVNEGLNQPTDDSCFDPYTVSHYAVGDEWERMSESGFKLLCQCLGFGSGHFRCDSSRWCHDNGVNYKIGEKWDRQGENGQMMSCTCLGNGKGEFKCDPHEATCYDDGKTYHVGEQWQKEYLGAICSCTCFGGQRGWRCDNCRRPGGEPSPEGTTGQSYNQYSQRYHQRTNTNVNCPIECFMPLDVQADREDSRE
Chain of Tenascin C (P24821 23-2201): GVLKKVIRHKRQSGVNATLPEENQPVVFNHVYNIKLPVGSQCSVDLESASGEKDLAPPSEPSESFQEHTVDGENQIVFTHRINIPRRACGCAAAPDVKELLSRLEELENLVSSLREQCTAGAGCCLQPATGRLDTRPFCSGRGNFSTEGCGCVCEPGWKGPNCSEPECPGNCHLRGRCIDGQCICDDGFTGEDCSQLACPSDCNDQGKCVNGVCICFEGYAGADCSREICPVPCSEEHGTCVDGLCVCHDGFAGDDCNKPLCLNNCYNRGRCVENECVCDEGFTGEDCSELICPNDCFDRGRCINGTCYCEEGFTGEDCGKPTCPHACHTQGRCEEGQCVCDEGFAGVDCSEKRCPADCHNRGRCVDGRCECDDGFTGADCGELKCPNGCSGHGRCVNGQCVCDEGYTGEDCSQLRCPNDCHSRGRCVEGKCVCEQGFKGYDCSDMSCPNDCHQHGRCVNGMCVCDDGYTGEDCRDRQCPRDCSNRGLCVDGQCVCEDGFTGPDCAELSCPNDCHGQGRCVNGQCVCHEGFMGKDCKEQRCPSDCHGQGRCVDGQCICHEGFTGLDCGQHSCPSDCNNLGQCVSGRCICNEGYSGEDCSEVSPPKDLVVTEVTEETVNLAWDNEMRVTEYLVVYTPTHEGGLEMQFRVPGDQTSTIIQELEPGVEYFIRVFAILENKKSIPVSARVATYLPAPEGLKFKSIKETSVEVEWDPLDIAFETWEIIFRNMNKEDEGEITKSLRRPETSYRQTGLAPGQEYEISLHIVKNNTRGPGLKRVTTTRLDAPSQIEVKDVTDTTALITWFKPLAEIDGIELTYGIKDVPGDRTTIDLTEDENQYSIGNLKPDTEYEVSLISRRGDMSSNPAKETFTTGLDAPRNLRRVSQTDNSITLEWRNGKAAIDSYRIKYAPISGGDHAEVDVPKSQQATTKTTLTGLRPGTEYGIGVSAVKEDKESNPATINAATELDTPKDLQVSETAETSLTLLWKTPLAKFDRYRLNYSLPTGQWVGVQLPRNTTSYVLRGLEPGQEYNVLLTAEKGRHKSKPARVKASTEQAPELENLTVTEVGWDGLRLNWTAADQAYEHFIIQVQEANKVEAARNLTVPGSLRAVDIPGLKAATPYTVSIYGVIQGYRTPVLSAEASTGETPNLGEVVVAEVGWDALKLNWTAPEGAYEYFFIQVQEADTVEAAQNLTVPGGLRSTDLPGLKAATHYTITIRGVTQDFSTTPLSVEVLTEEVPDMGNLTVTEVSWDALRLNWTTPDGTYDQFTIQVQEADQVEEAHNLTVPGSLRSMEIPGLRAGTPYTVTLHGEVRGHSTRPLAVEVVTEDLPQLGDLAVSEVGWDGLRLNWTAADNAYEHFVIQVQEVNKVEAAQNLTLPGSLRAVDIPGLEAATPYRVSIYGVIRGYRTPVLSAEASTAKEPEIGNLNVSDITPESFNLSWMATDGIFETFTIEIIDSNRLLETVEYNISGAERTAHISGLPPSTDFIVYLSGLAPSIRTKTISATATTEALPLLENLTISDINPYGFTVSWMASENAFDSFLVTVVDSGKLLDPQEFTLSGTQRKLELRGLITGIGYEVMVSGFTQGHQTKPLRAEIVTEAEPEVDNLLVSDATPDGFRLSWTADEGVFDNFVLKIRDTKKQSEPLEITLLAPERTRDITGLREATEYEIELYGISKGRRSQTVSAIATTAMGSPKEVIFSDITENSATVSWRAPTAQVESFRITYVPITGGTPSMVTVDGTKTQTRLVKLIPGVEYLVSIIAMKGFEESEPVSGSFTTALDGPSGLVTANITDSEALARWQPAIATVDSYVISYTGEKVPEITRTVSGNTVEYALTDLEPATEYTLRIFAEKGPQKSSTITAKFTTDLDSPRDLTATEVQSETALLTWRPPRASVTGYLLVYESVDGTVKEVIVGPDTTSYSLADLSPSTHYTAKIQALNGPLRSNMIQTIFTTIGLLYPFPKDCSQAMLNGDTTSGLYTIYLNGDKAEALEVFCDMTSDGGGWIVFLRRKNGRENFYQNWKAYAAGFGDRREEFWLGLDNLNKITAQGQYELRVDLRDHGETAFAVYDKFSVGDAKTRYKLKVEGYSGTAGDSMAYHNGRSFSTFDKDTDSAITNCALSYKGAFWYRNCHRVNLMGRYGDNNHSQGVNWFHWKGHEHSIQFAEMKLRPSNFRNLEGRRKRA

B1: human PDGF-BB-PlGF2123-144 (ligand)
chain: SLGSLTIAEPAMIAECKTRTEVFEISRRLIDRTNANFLVWPPCVEVQRCSGCCNNRNVQCRPTQVQLRPVQVRKIEIVRKKPIFKKATVTLEDHLACKCETVAAARPVTRRRPKGRGKRRREKQRPTDCHL
Q: Which Kd (Fibrinogen) does the source give for B1 here?
A: 3.2 nM

Q: What about the Kd (Tenascin C) of the same binder?
A: 6.3 nM

Q: And the Kd (Osteopontin)?
A: 3.3 nM

Q: And the Kd (Fibronectin)?
A: 4.5 nM

Q: What about the Kd (Vitronectin) of the same binder?
A: 1.2 nM

B2: human BMP-2 (ligand)
chain: QAKHKQRKRLKSSCKRHPLYVDFSDVGWNDWIVAPPGYHAFYCHGECPFPLADHLNSTNHAIVQTLVNSVNSKIPKACCVPTELSAISMLYLDENEKVVLKNYQDMVVEGCGCR
Q: With B2 as the binder, how does the Kd (Fibrinogen) read?
A: 47.1 nM

Q: What about the Kd (Tenascin C) of the same binder?
A: 25.5 nM

Q: And the Kd (Fibronectin)?
A: 19.2 nM

Q: What about the Kd (Vitronectin) of the same binder?
A: 94.7 nM

B3: human BMP-2-PlGF2123-144* (ligand)
chain: QAKHKQRKRLKSSCKRHPLYVDFSDVGWNDWIVAPPGYHAFYCHGECPFPLADHLNSTNHAIVQTLVNSVNSKIPKACCVPTELSAISMLYLDENEKVVLKNYQDMVVEGCGCRRRPKGRGKRRREKQRPTDSHL
Q: Which Kd (Fibrinogen) does the source give for B3 here?
A: 2 nM

Q: What about the Kd (Tenascin C) of the same binder?
A: 6.9 nM

Q: What about the Kd (Osteopontin) of the same binder?
A: 11.2 nM

Q: And the Kd (Fibronectin)?
A: 5.2 nM

Q: And the Kd (Vitronectin)?
A: 2.4 nM
